Data on 3 molecules can be found in paper PMC11333002, “Molecular dynamics simulations reveal how vinculin refolds partially unfolded talin rod helices to stabilize them against mechanical force” (PLOS Computational Biology, 2024).

In assay [1] the target is mouse talin1 R1 VBS (H4) peptide, fluorescein labelled (mouse). The assay is described as follows: fluorescence polarisation; fluorescein-labelled VBS peptide at 700 nM, 2-fold serial dilution of protein, triplicate, 25°C; one-site total binding equation.
Chain of mouse talin1 R1 VBS (H4) peptide, fluorescein labelled (mouse) (peptide, as listed by the source): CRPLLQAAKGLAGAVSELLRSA
Assay [2] relates to Vinculin-null mouse embryonic fibroblasts (MEF). As to the kind of experiment: Adhesion localization, vinculin/talin intensity (immunostaining, confocal). In kind it is cell-based. Conditions: full-length vinculin; vs WT vinculin; n = 22 (WT) and 23 (Q19S) cells. How it is done:
Vinculin-null mouse embryonic fibroblasts (MEF) were a kind gift from Prof. Carsten Grashoff (University of Münster) and have been previously described. Cells were maintained at 10–80% confluency in high-glucose Dulbecco’s modified Eagle medium with GlutaMax (10566016, Thermo Fisher Scientific) supplemented with 10% fetal bovine serum (Gibco) in a humidified 37°C, 5% CO2 incubator. For FRAP experiments, Vin-/- MEF cells were adapted to FluoroBrite DMEM medium (Thermo Fisher Scientific) supplemented with 10% fetal bovine serum and 1% GlutaMax for a minimum of 48 hours.
mEmerald-Vinculin-N-21 was a gift from Michael Davidson (Addgene plasmid # 54304; http://n2t.net/addgene:54304; RRID:Addgene_54304). To restore the wildtype human vinculin sequence, L234V backmutation was introduced to all vinculin constructs. Q19S mutation was introduced by GenScript cloning service. All plasmid constructs were authenticated by sequencing. Vin-/- MEF cells were transfected with the Neon transfection system (Thermo Fisher Scientific). […]
For adhesion intensity analysis, immunostained cells were imaged using a Nikon Eclipse Ti2-E inverted microscope equipped with A1R+ laser scanning confocal unit (Nikon) and Nikon CFI Plan Apo IR SR 60x WI (NA 1.27) objective. […] Talin and vinculin intensities in adhesion sites were analyzed using Fiji distribution of ImageJ 1.53t. […]

The next assay has as its system talin. As to conditions: cited from earlier work. From the text:
(Fig 1H). However, how the complexation occurs when the VBS structure is destabilized by force remains unclear. ... || Constant velocity SMD is known to overestimate the unfolding force magnitude, and the measured unfolding forces were approximately one order of magnitude higher when compared to the force required experimentally for vinculin dissociation from talin (above 25 pN). Therefore, to reach unfolding force magnitude within the force range seen in previous studies (<100 pN), we performed microsecond-scale constant force SMD simulations. Using constant force at 70 pN, we achieved limited but noticeable VBS destabilization in the vinculin-bound state within 3 μs. Increasing the fo ... || To assess the thermodynamic parameters of recognition and binding of partially unfolded talin VBS by vinculin, we used umbrella sampling and the weighted histogram analysis method to calculate the vinculin–VBS binding energy profiles. We used two different starting states of VBS: 1) fully α-helical VBS and 2) partially unfolded VBS, stretched by 1.5 nm. This distance was chosen to be consistent with the previously observed contractions upon vinculin binding to R3 (∼1.5–2.5 nm per VBS, depending on force magnitude). The whole process of vinculin–VBS binding was divided into three ... || (+ 2 further places)

Where two headings read alike, the source gives them in different places.

For “VD1 domain of mouse vinculin, Q19S (domain or fragment)”, the fold higher affinity than WT mVD1 in assay [1] turned out to be 1.75 fold.

B1: Q19S vinculin: full-length mEmerald-vinculin with Q19S mutation (protein, UniProt Q64727 1-1066, looked up, variant Q19S)
chain: MPVFHTRTIESILEPVAQSISHLVIMHEEGEVDGKAIPDLTAPVAAVQAAVSNLVRVGKETVQTTEDQILKRDMPPAFIKVENACTKLVQAAQMLQSDPYSVPARDYLIDGSRGILSGTSDLLLTFDEAEVRKIIRVCKGILEYLTVAEVVETMEDLVTYTKNLGPGMTKMAKMIDERQQELTHQEHRVMLVNSMNTVKELLPVLISAMKIFVTTKNSKNQGIEEALKNRNFTVEKMSAEINEIIRVLQLTSWDEDAWASKDTEAMKRALASIDSKLNQAKGWLRDPNASPGDAGEQAIRQILDEAGKVGELCAGKERREILGTCKMLGQMTDQVADLRARGQGASPVAMQKAQQVSQGLDVLTAKVENAARKLEAMTNSKQSIAKKIDAAQNWLADPNGGPEGEEQIRGALAEARKIAELCDDPKERDDILRSLGEIAALTSKLGDLRRQGKGDSPEARALAKQVATALQNLQTKTNRAVANSRPAKAAVHLEGKIEQAQRWIDNPTVDDRGVGQAAIRGLVAEGHRLANVMMGPYRQDLLAKCDRVDQLTAQLADLAARGEGESPQARALASQLQDSLKDLKAQMQEAMTQEVSDVFSDTTTPIKLLAVAATAPPDAPNREEVFDERAANFENHSGRLGATAEKAAAVGTANKSTVEGIQASVKTARELTPQVISAARILLRNPGNQAAYEHFETMKNQWIDNVEKMTGLVDEAIDTKSLLDASEEAIKKDLDKCKVAMANIQPQMLVAGATSIARRANRILLVAKREVENSEDPKFREAVKAASDELSKTISPMVMDAKAVAGNISDPGLQKSFLDSGYRILGAVAKVREAFQPQEPDFPPPPPDLEQLRLTDELAPPKPPLPEGEVPPPRPPPPEEKDEEFPEQKAGEVINQPMMMAARQLHDEARKWSSKGNDIIAAAKRMALLMAEMSRLVRGGSGTKRALIQCAKDIAKASDEVTRLAKEVAKQCTDKRIRTNLLQVCERIPTISTQLKILSTVKATMLGRTNISDEESEQATEMLVHNAQNLMQSVKETVREAEAASIKIRTDAGFTLRWVRKTPWYQ
modifications: full-length mEmerald
notes: full-length mEmerald-vinculin with Q19S mutation
B1: in assay [2], the “incorporation into talin-rich focal adhesions” value is reported as “incorporated into talin-rich focal adhesions similarly”.

B2: vinculin: vinculin in cited magnetic tweezers experiments with talin (protein, UniProt P18206 1-1134, looked up)
Vinculin: MPVFHTRTIESILEPVAQQISHLVIMHEEGEVDGKAIPDLTAPVAAVQAAVSNLVRVGKETVQTTEDQILKRDMPPAFIKVENACTKLVQAAQMLQSDPYSVPARDYLIDGSRGILSGTSDLLLTFDEAEVRKIIRVCKGILEYLTVAEVVETMEDLVTYTKNLGPGMTKMAKMIDERQQELTHQEHRVMLVNSMNTVKELLPVLISAMKIFVTTKNSKNQGIEEALKNRNFTVEKMSAEINEIIRVLQLTSWDEDAWASKDTEAMKRALASIDSKLNQAKGWLRDPSASPGDAGEQAIRQILDEAGKVGELCAGKERREILGTCKMLGQMTDQVADLRARGQGSSPVAMQKAQQVSQGLDVLTAKVENAARKLEAMTNSKQSIAKKIDAAQNWLADPNGGPEGEEQIRGALAEARKIAELCDDPKERDDILRSLGEISALTSKLADLRRQGKGDSPEARALAKQVATALQNLQTKTNRAVANSRPAKAAVHLEGKIEQAQRWIDNPTVDDRGVGQAAIRGLVAEGHRLANVMMGPYRQDLLAKCDRVDQLTAQLADLAARGEGESPQARALASQLQDSLKDLKARMQEAMTQEVSDVFSDTTTPIKLLAVAATAPPDAPNREEVFDERAANFENHSGKLGATAEKAAAVGTANKSTVEGIQASVKTARELTPQVVSAARILLRNPGNQAAYEHFETMKNQWIDNVEKMTGLVDEAIDTKSLLDASEEAIKKDLDKCKVAMANIQPQMLVAGATSIARRANRILLVAKREVENSEDPKFREAVKAASDELSKTISPMVMDAKAVAGNISDPGLQKSFLDSGYRILGAVAKVREAFQPQEPDFPPPPPDLEQLRLTDELAPPKPPLPEGEVPPPRPPPPEEKDEEFPEQKAGEVINQPMMMAARQLHDEARKWSSKPGIPAAEVGIGVVAEADAADAAGFPVPPDMEDDYEPELLLMPSNQPVNQPILAAAQSLHREATKWSSKGNDIIAAAKRMALLMAEMSRLVRGGSGTKRALIQCAKDIAKASDEVTRLAKEVAKQCTDKRIRTNLLQVCERIPTISTQLKILSTVKATMLGRTNISDEESEQATEMLVHNAQNLMQSVKETVREAEAASIKIRTDAGFTLRWVRKTPWYQ
On to B2, for which, in the assay on talin (above 15 pN, ref [26]), the “vinculin–VBS binding above 15 pN” value is listed as “fast transition”. Moreover, the “increase in talin end-to-end distance on vinculin dissociation” value in the assay with talin (above 25 pN, ref [22],[26]) is given as about 3 nm. In addition, the “contraction per VBS on vinculin binding to R3” value in the assay with talin (depending on force magnitude, ref [26]) was 1.5–2.5 nm. Besides, in the assay with talin (lower forces, ref [26]), the “time of vinculin–VBS binding under lower forces” value is “within hundreds of milliseconds”. Besides, the “force for vinculin dissociation from talin” value in the assay with talin (ref [22],[26]) is “above 25 pN”. Further, the “reduction in talin end-to-end distance on vinculin binding” value in the assay with talin (talin R3, 9 pN, ref [26]) is recorded as ~ 1.5 nm; with talin (talin R3, 20 pN, ref [26]) it was ~ 2.5 nm.
